From US20250241939A1, “NUCLEIC ACID-BASED DELIVERY SYSTEMS AND USES THEREOF” (Kodikaz Therapeutic Solutions, Inc., priority 2022, published 2025)

B1: 26 (nucleic acid, listed as Homo sapiens)
chain: AATTACAACAACCCTTAATATTTGTAAAGCGCTTGATAATTCAGGGAGGGCTTTTAAAAACTTCTATCCATCTCTTCCCCCCAGCAATCCTATGAGGTAGGCAGGGCTGGAATCATTTGCTGCATTTTATCGAATAGGAAGCCATGACTCGTAGAGGTCTGGTGACTTAACTGAGGTCACCCACTGAGGACGTGGCAGAGCTGGGTCCTGAATCTGTGGCCCTCAGGCTCTTTGCCTGGCCCTGCCTCACATAGACTACGCTGCCTCT
B2: 67 (nucleic acid, listed as Homo sapiens)
chain: CCTTAATAGTTAATCTCCTATTAATAAGTAAGTGATTCTTTAATTAAACTTTCCTCATTCAAATGGCCATATGCTTTCTGTCTCTCGACTAGATGCTGAGTGATATACCCCCCA
modifications: listed as DNA, chemistry not fully specified
B3: 50 (nucleic acid, listed as Homo sapiens)
chain: CAGTCTTTCAGGACCAGAAGAGATGGATTTTAGGTTTTCCTTCCACTCAATGTATTCTATATGTACCCTAATCAACAAACATGCCTGGTTGTCACAGGTAGAAGGGGTCTCTACTCTGAATCATTCAGAGAAGAAATAATCATATTCTTTCGATGCTATCACTAACACAGGACCGTGATCCGAGACAACCAGGTTCAGTTCTTGATATGTAAAGGAATTTGGGAAAATATCATCTCTCACCACAAAATCTGTATTTTTATGTATATTTAAGCAAAATCCTGTTTTGGTCATCATTTTCTTTACCTTTCTTCTATATCCATCCTAATCTCCCTTTCAGC
B4: 55 (nucleic acid, listed as Homo sapiens)
chain: GCGGTGGCTCACGCTTGTAATCCCAGCACTTTGGGAGGCCGAGGTGGGCGGATCACGAGGTCAGGAGATCAAGACCACGGTGAAACCCCATCTCTACTAAAAATATAAAAAATTAGCCGGGCGTGGTGGTGGGCGCCTGTAATCCCAGCTACTCAGAGAGGCTGAGGCAGGAGAAGGGCGTGAACCCGGGAGGCGGAGCTTGTAGTGAGCTGAGATCGCGCCACTGCACTCCAGCACCCCAGCCTGGGTGACAGAGCGAGACTCCGTCTCAAAAAAATAATAATAATAATTAAATAAATAA
B5: 52 (nucleic acid, listed as Homo sapiens)
chain: TCATCTCACAGAGTTAAACCTTTCTTTTGATTGAGCAGTTTTGAAACTCTCTTTTTGTAGAATCTACAAGTGGACATTGGGAGCTCTTTGAGGCCTATGTTAGAAAAGGAAATATCTTCACATAAAACCTAGATAGAGGCAATCTGAGAAACATCTTTGTGATGTGTGCATTCATCTCACGGAGTTAAACCTTTCTTTTCGTTGAGCAGTTTTTAAACTGTCTTTTTGTAGAATGTGCAAGTGGACATTTGGAGCGCTTTTTGTCCTATGGTGGGAAAGGAAGTATCTTCACATAAAAACTAGACCGAAGAATTCTGAGAAACTTCTTTGTGACGTGTACGTTCATCTCACTGAGTTGAACCTTTCTTTTGATTGAGCAGTTTGGAAACACTCTTTTTGTAGAATCTGCAAGTAGACATTTGGAGCGCTTTTCAGCCTACGGTAGAAAAGGAAATATCTTCACATCACAAAGAGAGAGTTTCAAAACTGCTCTATCAAAAGAAAGGTTTAACCCTGTGCGATGAATGCACATATCACAAAGAAGTTTCTCAGATTGCTTCTGTCTAGATTTTATGTGAAGATATTCCTTTTTCCACCATAGGCCTCAAAGCGCTCCAAATGTCCACTTGCAGATTCTACAAAAAGAGTGCTTCCAAACTGCTCGATGAAAAAAATGGTTCAACTCTGTGAGATGAATGCACGCATCACAAAGAAGTTTCTCAGAATTTTTCTATCTAGTATTTATTTGAAGATATTTCATTTTCCACCAT
B6: 60 (nucleic acid, listed as Homo sapiens)
chain: ATTCAGAAGACAAATCTCACATGCAAAGACACACATAGGCTCAAAATAAGTGGATGGAGGAATATTTACCAAGCAAATGGCAAGCAAAAAGAAAAAGCAGGGGTTGCAATCCTAGTATCTGATAAAACAGGCTTTAAACCAAGAAAGATCAAAAAAGACAAAGAAGGTCATTACATAATGGTAAAGGGATCAATGCAACAAGAAGAGCTAACTATCCTAAATATATACGCACCCAATACAGGAGCACCCAGATTCATAAAGTAAATTCTTAGAGACTACAAAGAGACTTATACTCCCATACAATAATAGTGGGAGATTTTAACACCTCATTGTTGATATTAGATCAATGAGACAGAAAATTAACAAGGATATTCAGGACTTGAACTCAGCACTGGACAAAGCAGATTTAATAGACATCTACAGAACTCTCTACCTCAGATCAACAGAATATACATTCTTCTCAGCACCACATAGCACTTATTCTAAAATTGACCACATAATTGGAAGTAAAACACTCCTCAACGAATGCAAAAGAATGGAAATCATAACAAACAGTCTCTCAGACCACAGTGCAATCAAATTAGAACTCAGGATTACGAAACTTACTCAAAACTGCACAACTACATGGAAACTGAACAACCTGCTCCTGAACGACTACTGGGTAAATAATGAAATGAAGGCAGAAATAAATAAGTTTTTGAAACCAATGAGAACAAAGACACAACATACCAGAATCTCTGGGACACAGCTAAAACAGTG
B7: 61 (nucleic acid, listed as Homo sapiens)
chain: TATTTTTAAGCAAAGACTTAGAGAGAGAGAGGAAGTTAGCTATGCACATTGTGGGTGCGGTGTGGTTAGGGTGGCCCTGAGATAGGGATATGCCTGGTGTGTTTACGGAACAGCTAAGAGGCCAGGGAACTAGAGGAAATTGAGTGGGAAGGAGAAGAGTAGGAGATTAGTTTTGAAAAGCAAATGGTTTGGGAATATGGATCATGTAAGAGCACATGAGATTTTATAAGGATTTCATTTTACTCAGGGTGAAATGAAGAAGCACTAAAA
B8: 58 (nucleic acid, listed as Homo sapiens)
chain: TAGATGGAGGGGGAAAAACAGGGTGGGGAGCGGGAGGGAGGGAAGGTTTTGCAGAAAGACGGCGGTTAAAAAGTTTATGGGTAGATGGAGGGGGAAAAGAGGGTGGCAAGTGGGAGGAGGAAAGAGGGTGATAAGGGGGGGAAGTGGGGGTGAGCAGTAGGGAGAGAAGGTTTTGTGAAAAAAATGGGGAGAAAGGTTTTGGTTAGACGGGAGAAAAGAGGGTAACAAGTTGGGGAAGGAAAAAGAGGGTAGCTAGGAAGAAGACAAGGTTTTGCGAAAAGATAGCGGCCAGAAAAGAAAGACGGTGGAGAAAGGAAAGACGGTGGGTAAAAAGTGGGTAGATGGAGTGGGGAAAGAGGGT
B9: MIRc (nucleic acid, listed as Homo sapiens)
DNA: B1 chain

What follows are molecules tested on MIA (pancreatic cancer) cell genome (assay: ctDNA coculture with MIA cells, whole genome sequencing: genomic insertion sites, transposons at insertion points and SNVs (pancreatic cancer)). Details: TABLE 4; gene at identified genomic insertion site.
Type: cell-based, human
Method: The integration of ctDNAs into the host cell genome was evaluated. ctDNA was extracted from patient plasma, cultured for 24 hours with cells of a matching cancer cell type or non-matching cancer cell type, and whole genome sequencing was performed. The cell lines used were MM1s (multiple myeloma, MM) and MIA (pancreatic cancer, PC).
The sequence data was used to reconstruct genomic contigs for each experimental condition by de novo assembly. […] Coculture contigs carrying a ctDNA insertion were identified using NucDiff analysis.
Experiments were designed to identify the presence of transposons in ctDNA fragments. To map ctDNA genomic junctions more precisely, a PACBIO probe was ligated to multiple myeloma and pancreatic cancer ctDNA samples to label their 5′ and 3′ ends. Whole-genome sequencing of DNA from cells with ctDNA genomic integration was done using the Illumina platform. De novo assembly was performed on the sequencing output. ctDNA contigs containing PACBIO adaptor were then matched to those contigs containing inserted ctDNA sequences identified in the coculture experiments. Transposable element on ctDNA sequences at the insertion points (<100 nucleotides from transition point between cell and ctDNA) were detected and classified using RepeatMaster.
A search was conducted for transposons that preferentially target cells of matching tumor types. The lists of transposons identified at the ctDNA insertion point in matching and mismatched coculture conditions were compared (e.g., MM ctDNA with MM cells or PC cells). Transposons were selected that were uniquely or preferentially inserted in the matching conditions.
Whole-genome sequencing and Whole exon sequencing: ctDNA was extracted from 10 MM and 10 PC patients. DNA from CD138 (+) cells and from cell lines used in in vitro experiments (MM1s and MIA) was extracted using Blood & Cell Culture DNA Mini Kit (Quiagen, MD). DNA from […] paraffin embedded pancreatic tumors was obtained using QIAamp DNA FFPE Tissue Kit Print (Qiagen, MD).
After extraction, ctDNA was ligated to the PACBIO adaptor ([…]) using the ABM DNA Library Prep Kit for Illumina Sequencing (Applied Biological Materials Inc. Canada). PACBio-labeled ctDNA and regular ctDNA were subjected to standard methods for library preparation and sequencing using Illumina and Agilent protocols, respectively. Applied Biological Materials Inc. prepared the libraries and performed whole-exon and -genome sequencing.
Identification of transposable elements and its nucleotide variants: To determine the locations of transposable-like regions in contigs, sequences were analyzed and transposable elements (TEs) were identified and classified using RepeatMasker version 4.1.0 and the Dfam database (release 3.1) of repetitive DNA families was used as a reference for identifying repeats in ctDNA contig sequences that were part of qualifying structural events. For each repeat sequence identified by RepeatMasker, the overall frequency of the specific repeat (e.g., for AluSp or L1) and their parent class (e.g., SINE) was computed.
Once the TE elements were identified, hit repeats/TE sequences, unique contigs for all samples, and insertion sequence were aligned with MAFFT software version. Mutations in TE sequences were identified by comparison of nucleotides at each position in the multiple sequence alignment with the “Biostrings” R package (version 4.1). A position was considered to contain mutation if the substitution was present in contigs of all samples.
For B1, the Gene was “PPAC”.

Same assay, conditions: TABLE 4; identified genomic insertion site, chromosome
B2 was tested, and the Location was “Chr 19”.
For B3, the Location was “Chr 7”.
In the case of B4, the Location is reported as “Chr 14”.
For B5, the Location was “Chr 7”.
For B6, the Location was “Chr 4”.
In the case of B7, the Location is reported as “Chr 14”.
For B1, the Location was “Chr16”.
With B8 the Location was “Chr 13”.

Same assay, conditions: TABLE 4; number of single nucleotide variants (SNVs or SNPs) identified; polynucleotides for pancreatic cancer cells
B2 was tested, and the “No. SNP” value was 1.
For B3, the “No. SNP” value was 3.
For B4, the “No. SNP” value was 1.
B5 was tested, and the “No. SNP” value was 55.
In the case of B6, the “No. SNP” value is reported as 1.
In the case of B7, the “No. SNP” value is reported as 1.
B1 was tested, and the “No. SNP” value was 0.
For B8, the “No. SNP” value was 1.

Same assay, conditions: TABLE 4; position on the chromosome of the identified genomic insertion site
B2 was tested, and the Chr location was 40372997.
In the case of B3, the Chr location is reported as 18828526.
B4 gave a Chr location of 103067410.
B5 gave a Chr location of 57988111.
With B6 the Chr location was 36939485.
B7 gave a Chr location of 21413450.
With B8 the Chr location was 19693028.

Same assay, conditions: TABLE 8; pancreatic cancer co-culture; BLAST alignment orientation
In the case of B9, the blast orientation is reported as “Plus/Plus”.

Same assay, conditions: TABLE 8; pancreatic cancer co-culture; chromosome with the longest result for BLAST analysis of the full contig
In the case of B9, the blast chr is reported as “chr16 and chr8”.

Same assay, conditions: TABLE 8; pancreatic cancer co-culture; compared with the human reference genome
For B9, the Transposon orientation was “direct”.

Same assay, conditions: TABLE 8; pancreatic cancer co-culture; location of the transposon relative to the insertion on the contig
With B9 the “Location relative to insertion” value was “left”.
